The results in this text go back to article PMC10748421.

This assay concerns the target full-length recombinant human BAX (human) (UniProt Q07812). The experiment in a line: not stated; data not shown; BAX stocks at high concentrations.

Consider “full-length recombinant human BAX (from UniProt Q07812 1-192) (natural protein)”, for which the stoichiometry N is 2.
